In general, stoichiometry N refers to a count of units in the complex or per binding partner.

The series concerns the molecule itself. Description: SEC + other: sucrose gradient sedimentation.

B1: FLAG-tagged Stu1 (natural protein, S. cerevisiae, UniProt P38198 1-1513, looked up)
chain: MSSFNNETNNNSNTNTHPDDSFPLYTVFKDESVPIEEKMALLTRFKGHVKKELVNESSIQAYFAALLFISGHYAYRSYPRLIFLSHSSLCYLIKRVAMQSPVQFNDTLVEQLLNHLIFELPNEKKFWLASIKAIEAIYLVNPSKIQAILANFLRRPSENQNGDYLNRIKSTLLTIDELIQINEKNNSNHLQLLRFFMLSFTNLLNNNLNEHANDDNNNVIIELIFDIMYKYLKMDDENSQDLIDGFINDLEVEKFKQKFISLAKSQDQHGSQEDKSTLFDEEYEFQLLLAEAKLPQLSNNLSSKDPAMKKNYESLNQLQQDLENLLAPFQSVKETEQNWKLRQSNIIELDNIISGNIPKDNPEEFVTVIKEVQLIELISRATSSLRTTLSLTALLFLKRLIHILNDQLPLSILDQIFVIFKNLLSSTKKISSQTAFHCLITLIIDINHFHNKLFQLSFLLINEKTVTPRFCSAILLRSFLIKFNDSNLSLNNSNTTSPTSKLENNIIYIEEWLKKGISDSQTTVREAMRLTFWYFYKCYPTNAKRLLSSSFSPQLKKATELAIPAHLNINYQVSRVSSTASASSATSRLYSHSSNNSSRKTSLLEQKRNYPSYAQPTQSSSTSLLNAPAVTAGGSVIASKLSNKLKTNLRSTSEYSSKENEKRARHHDSMNSVSNSNTKDNNNVTKRKVSAPPSSTAATKVSENYTNFDDFPSNQIDLTDELSNSYSNPLIKKYMDKNDVSMSSSPISLKGSNKLGEYETLYKKFNDASFPAQIKDALQYLQKELLLTSQQSSSAPKFEFPMIMKKLRQIMIKSPNDFKPFLSIEKFTNGVPLNYLIELYSINSFDYAEILKNRMNPEKPYELTNLIITIADLFNFLNANNCPNDFKLYYMKYKTTFFNYNFKLLLEIFRNLNIKHDNTLRSGTNDLMPKISMILFQIYGKEFDYTCYFNLIFEIYKFDNNRFNKLLADFDIVSTKMKICHELEKKDANFKVEDIISRESSVSFTPIDNKKSEGDEESDDAVDENDVKKCMEMTMINPFKNLETDKTLELKNNVGKRTSSTDSVVIHDDNDKDKKLSEMTKIVSVYQLDQPNPAKEEDDIDMENSQKSDLNLSEIFQNSGENTERKLKDDNEPTVKFSTDPPKIINEPEKLIGNGNENEKPDLETMSPIKINGDENMGQKQRITVKRERDVALTEQDINSKKMKLVNNKKSEKMHLLIMDNFPRDSLTVYEISHLLMVDSNGNTLMDFDVYFNHMSKAINRIKSGSFTMKHINYLIEPLITCFQNQKMTDWLTNENGFDELLDVAIMLLKSTDDTPSIPSKISSKSIILVHCLLVWKKFLNTLSENADDDGVSVRMCFEEVWEQILLMLNKFSDYGNEIYKLAQEFRDSLMLSHFFKKHSATRILSMLVTEIQPDTAGVKETFLIETLWKMLQSPTICQQFKKSNISEIIQTMSYFIMGTDNTSWNFTSAVVLARCLRVLQTTPDYTEQETERLFDCLPKNVFKMIMFIASNE
On to B1, for which the “stoichiometry N” value turned out to be 2.

For the origin of these results see PMC4033772 (The Journal of Cell Biology, 2014).
